Target: IKZF1 (Ikaros), recombinant (Homo sapiens, UniProt Q13422 1-519)
Experiment: EMSA; 1 ug IKZF1 alone; EMSA per LI-COR kit protocol (829-07910), 100 nM IR700 probe, 4-12% TBE gel in 0.5x TBE; binding buffer, pH and temperature not stated
Conditions: protein: commercial; chain copies: 2; label: IRDye 700

Chain of IKZF1 (Ikaros), recombinant (Q13422 whole entry): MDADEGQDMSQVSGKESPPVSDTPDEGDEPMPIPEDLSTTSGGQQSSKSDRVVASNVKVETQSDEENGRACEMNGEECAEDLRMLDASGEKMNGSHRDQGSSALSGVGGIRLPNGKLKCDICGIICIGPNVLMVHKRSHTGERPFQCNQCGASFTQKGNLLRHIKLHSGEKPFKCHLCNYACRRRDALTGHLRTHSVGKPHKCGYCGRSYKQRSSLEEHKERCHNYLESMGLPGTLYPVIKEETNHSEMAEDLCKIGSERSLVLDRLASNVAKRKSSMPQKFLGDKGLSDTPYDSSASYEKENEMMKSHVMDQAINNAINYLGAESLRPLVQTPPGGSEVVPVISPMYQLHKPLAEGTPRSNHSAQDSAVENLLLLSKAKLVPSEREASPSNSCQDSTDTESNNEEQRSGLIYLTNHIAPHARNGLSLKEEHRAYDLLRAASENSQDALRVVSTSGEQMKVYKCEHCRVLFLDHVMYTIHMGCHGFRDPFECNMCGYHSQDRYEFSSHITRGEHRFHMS

B1: IL10 CNS9 WT probe (dsDNA)
DNA 1: GAGGTTGCAGTTTCGTTGTGAGTCAGGCCTGCTGA
DNA 2: TCAGCAGGCCTGACTCACAACGAAACTGCAACCTC
  binding result: no binding

Source: PMC11717359, “A new pipeline SPICE identifies novel JUN-IKZF1 composite elements”
